Consider five sequences from the supplement of paper PMC5998384.

Data set [1] concerns HeLa Kyoto. As to the kind of experiment: solubility in G1/S (NP-40 vs SDS abundance) (log2 ratio); higher = more soluble. The note with it: cell cycle stage: G1/S.
The test system of data set [2] is HeLa Kyoto. The experiment in a line: thermal stability score vs G1/S (z-score of summed log2 fold changes over temperatures); higher = more thermally stable than in G1/S.
Data set [3] deals with HeLa Kyoto. The experiment in a line: solubility change mitosis vs G1/S (difference of NP-40 vs SDS log2 ratios) (log2 ratio difference); higher = more soluble in mitosis.
Data set [4] deals with HeLa Kyoto. As to the kind of experiment: melting temperature (median over replicates), in situ; higher = more thermally stable.
Where [5] appears, read: cell cycle stage: early G1 (4.5 h after nocodazole release).
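For melting temperature (median over replicates), in situ in this document: HeLa Kyoto cells synchronized by double thymidine or nocodazole block, proteins quantified by TMT10plex mass spectrometry, three independent biological replicates.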
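For solubility change mitosis vs G1/S (difference of NP-40 vs SDS log2 ratios) in this document: synchronized HeLa Kyoto cells (double thymidine block for G1/S, nocodazole release for mitosis), protein amounts in NP-40 versus SDS lysates quantified by mass spectrometry, three biological replicates.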
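For solubility in G1/S (NP-40 vs SDS abundance) in this document: HeLa Kyoto cells arrested at G1/S by double thymidine block, proteins quantified by TMT10plex mass spectrometry in mild NP-40 versus SDS extracts, three biological replicates.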
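For thermal stability score vs G1/S (z-score of summed log2 fold changes over temperatures) in this document: synchronized HeLa Kyoto cells, proteins quantified by TMT10plex mass spectrometry, three biological replicates, mitosis taken 0.5 h after nocodazole release, G1/S directly after double thymidine block.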

Turning to “MAAARATTPADGEEPAPEAEALAAARERSSRFLSGLELVKQGAEARVFRGRFQGRAAVIKHRFPKGYRHPALEARLGRRRTVQEARALLRCRRAGISAPVVFFVDYASNCLYMEEIEGSVTVRDYIQSTMETEKTPQGLSNLAKTIGQVLARMHDEDLIHGDLTTSNMLLKPPLEQLNIVLIDFGLSFISALPEDKGVDLYVLEKAFLSTHPNTETVFEAFLKSYSTSSKKARPVLKKLDEVRLRGRKRSMVG [TP53RK]”, the “solubility in G1/S (log2)” value in the data set with HeLa Kyoto [1] is 0.367. Further, the thermal stability score with HeLa Kyoto [2] (setting [5]) is 0.0261; in the data set with HeLa Kyoto [2] (cell cycle stage: mitosis), -0.818. For the same sequence, in the data set on HeLa Kyoto [3], the “solubility change mitosis (log2)” value was -0.151. The melting temperature amounted to 55.1 °C in the data set with HeLa Kyoto [4] (cell cycle stage: G1/S) and 53 °C in the data set with HeLa Kyoto [4] (cell cycle stage: mitosis).
Turning to “MATGLGEPVYGLSEDEGESRILRVKVVSGIDLAKKDIFGASDPYVKLSLYVADENRELALVQTKTIKKTLNPKWNEEFYFRVNPSNHRLLFEVFDENRLTRDDFLGQVDVPLSHLPTEDPTMERPYTFKDFLLRPRSHKSRVKGFLRLKMAYMPKNGGQDEENSDQRDDMEHGWEVVDSNDSASQHQEELPPPPLPPGWEEKVDNLGRTYYVNHNNRTTQWHRPSLMDVSSESDNNIRQINQEAAHRRFRSRRHISEDLEPEPSEGGDVPEPWETISEEVNIAGDSLGLALPPPPASPGSRTSPQELSEELSRRLQITPDSNGEQFSSLIQREPSSRLRSCSVTDAVAEQGHLPPPSAPAGRARSSTVTGGEEPTPSVAYVHTTPGLPSGWEERKDAKGRTYYVNHNNRTTTWTRPIMQLAEDGASGSATNSNNHLIEPQIRRPRSLSSPTVTLSAPLEGAKDSPVRRAVKDTLSNPQSPQPSPYNSPKPQHKVTQSFLPPGWEMRIAPNGRPFFIDHNTKTTTWEDPRLKFPVHMRSKTSLNPNDLGPLPPGWEERIHLDGRTFYIDHNSKITQWEDPRLQNPAITGPAVPYSREFKQKYDYFRKKLKKPADIPNRFEMKLHRNNIFEESYRRIMSVKRPDVLKARLWIEFESEKGLDYGGVAREWFFLLSKEMFNPYYGLFEYSATDNYTLQINPNSGLCNEDHLSYFTFIGRVAGLAVFHGKLLDGFFIRPFYKMMLGKQITLNDMESVDSEYYNSLKWILENDPTELDLMFCIDEENFGQTYQVDLKPNGSEIMVTNENKREYIDLVIQWRFVNRVQKQMNAFLEGFTELLPIDLIKIFDENELELLMCGLGDVDVNDWRQHSIYKNGYCPNHPVIQWFWKAVLLMDAEKRIRLLQFVTGTSRVPMNGFAELYGSNGPQLFTIEQWGSPEKLPRAHTCFNRLDLPPYETFEDLREKLLMAVENAQGFEGVD [NEDD4L]”, the “solubility in G1/S (log2)” value in the data set with HeLa Kyoto [1] is -0.0714. In addition, the thermal stability score with HeLa Kyoto [2] (setting [5]) stood at 0.949; in the data set on HeLa Kyoto [2] (cell cycle stage: mitosis) it was 2.33. In addition, the “solubility change mitosis (log2)” value with HeLa Kyoto [3] was -0.189. In addition, the melting temperature in the data set with HeLa Kyoto [4] (cell cycle stage: G1/S) came out at 50 °C; in the data set on HeLa Kyoto [4] (cell cycle stage: mitosis), 49.6 °C.
As for “MALWRGSAYAGFLALAVGCVFLLEPELPGSALRSLWSSLCLGPAPAPPGPVSPEGRLAAAWDALIVRPVRRWRRVAVGVNACVDVVLSGVKLLQALGLSPGNGKDHSILHSRNDLEEAFIHFMGKGAAAERFFSDKETFHDIAQVASEFPGAQHYVGGNAALIGQKFAANSDLKVLLCGPVGPKLHELLDDNVFVPPESLQEVDEFHLILEYQAGEEWGQLKAPHANRFIFSHDLSNGAMNMLEVFVSSLEEFQPDLVVLSGLHMMEGQSKELQRKRLLEVVTSISDIPTGIPVHLELASMTNRELMSSIVHQQVFPAVTSLGLNEQELLFLTQSASGPHSSLSSWNGVPDVGMVSDILFWILKEHGRSKSRASDLTRIHFHTLVYHILATVDGHWANQLAAVAAGARVAGTQACATETIDTSRVSLRAPQEFMTSHSEAGSRIVLNPNKPVVEWHREGISFHFTPVLVCKDPIRTVGLGDAISAEGLFYSEVHPHY [ADPGK]”, in the data set with HeLa Kyoto [1], the “solubility in G1/S (log2)” value is -0.0136. For the same sequence, the thermal stability score in the data set on HeLa Kyoto [2] (setting [5]) is 1.05; with HeLa Kyoto [2] (cell cycle stage: mitosis) it was -1.45. Further, the “solubility change mitosis (log2)” value in the data set on HeLa Kyoto [3] is -0.191. The figures for the melting temperature in the data set on HeLa Kyoto [4] (cell cycle stage: G1/S) and with HeLa Kyoto [4] (cell cycle stage: mitosis) were 55.3 °C and 55.4 °C, respectively.
Turning to “MAEPFLSEYQHQPQTSNCTGAAAVQEELNPERPPGAEERVPEEDSRWQSRAFPQLGGRPGPEGEGSLESQPPPLQTQACPESSCLREGEKGQNGDDSSAGGDFPPPAEVEPTPEAELLAQPCHDSEASKLGAPAAGGEEEWGQQQRQLGKKKHRRRPSKKKRHWKPYYKLTWEEKKKFDEKQSLRASRIRAEMFAKGQPVAPYNTTQFLMDDHDQEEPDLKTGLYSKRAAAKSDDTSDDDFMEEGGEEDGGSDGMGGDGSEFLQRDFSETYERYHTESLQNMSKQELIKEYLELEKCLSRMEDENNRLRLESKRLGGDDARVRELELELDRLRAENLQLLTENELHRQQERAPLSKFGD [HEXIM1]”, the “solubility in G1/S (log2)” value in the data set on HeLa Kyoto [1] was determined as 0.211. In addition, the thermal stability score with HeLa Kyoto [2] (setting [5]) was -4.2; in the data set on HeLa Kyoto [2] (cell cycle stage: mitosis), -2.03. The “solubility change mitosis (log2)” value in the data set with HeLa Kyoto [3] is 0.123. For the same sequence, the melting temperature came out at 57.6 °C with HeLa Kyoto [4] (cell cycle stage: G1/S) and 55.5 °C in the data set with HeLa Kyoto [4] (cell cycle stage: mitosis).
In the case of “MLDFFTIFSKGGLVLWCFQGVSDSCTGPVNALIRSVLLQERGGNNSFTHEALTLKYKLDNQFELVFVVGFQKILTLTYVDKLIDDVHRLFRDKYRTEIQQQSALSLLNGTFDFQNDFLRLLREAEESSKIRAPTTMKKFEDSEKAKKPVRSMIETRGEKPKEKAKNSKKKGAKKEGSDGPLATSKPVPAEKSGLPVGPENGVELSKEELIRRKREEFIQKHGRGMEKSNKSTKSDAPKEKGKKAPRVWELGGCANKEVLDYSTPTTNGTPEAALSEDINLIRGTGSGGQLQDLDCSSSDDEGAAQNSTKPSATKGTLGGMFGMLKGLVGSKSLSREDMESVLDKMRDHLIAKNVAADIAVQLCESVANKLEGKVMGTFSTVTSTVKQALQESLVQILQPQRRVDMLRDIMDAQRRQRPYVVTFCGVNGVGKSTNLAKISFWLLENGFSVLIAACDTFRAGAVEQLRTHTRRLSALHPPEKHGGRTMVQLFEKGYGKDAAGIAMEAIAFARNQGFDVVLVDTAGRMQDNAPLMTALAKLITVNTPDLVLFVGEALVGNEAVDQLVKFNRALADHSMAQTPRLIDGIVLTKFDTIDDKVGAAISMTYITSKPIVFVGTGQTYCDLRSLNAKAVVAALMKA [SRPR]”, in the data set on HeLa Kyoto [1], the “solubility in G1/S (log2)” value turned out to be 0.119. Further, the thermal stability score stood at 1.98 with HeLa Kyoto [2] (setting [5]) and 2.56 in the data set on HeLa Kyoto [2] (cell cycle stage: mitosis). The “solubility change mitosis (log2)” value in the data set with HeLa Kyoto [3] was -0.0915. For the same sequence, the melting temperature in the data set on HeLa Kyoto [4] (cell cycle stage: G1/S) came to 50.5 °C; in the data set on HeLa Kyoto [4] (cell cycle stage: mitosis), 50.9 °C.
